This note sets out measurements from publication doi:10.1101/2024.11.10.622895.

For the test, the target named is tail tube protein (TTP) of Bacillus subtilis bacteriophage SPR (Bacillus subtilis bacteriophage SPR). Description: cryo-EM structure.

Values joined by “and” are separate entries in the source; they are usually repeats but may differ in a detail not shown here. Equal entries are not always repeated.

Consider “tail tube protein (TTP) of Bacillus subtilis bacteriophage SPR (natural protein)”, for which the stoichiometry N is 5 and 6.

The stoichiometry N is the number of molecules, sites or subunits per partner or assembly.
